The source of these data is article PMC4117486, “Investigation of Endoglin Wild-Type and Missense Mutant Protein Heterodimerisation Using Fluorescence Microscopy Based IF, BiFC and FRET Analyses” (PLoS ONE, 2014).

To fix the notation:
B1: TβRII, ECFP- or EYFP-tagged (receptor, UniProt P37173 23-567, looked up)
chain: TIPPHVQKSVNNDMIVTDNNGAVKFPQLCKFCDVRFSTCDNQKSCMSNCSITSICEKPQEVCVAVWRKNDENITLETVCHDPKLPYHDFILEDAASPKCIMKEKKKPGETFFMCSCSSDECNDNIIFSEEYNTSNPDLLLVIFQVTGISLLPPLGVAISVIIIFYCYRVNRQQKLSSTWETGKTRKLMEFSEHCAIILEDDRSDISSTCANNINHNTELLPIELDTLVGKGRFAEVYKAKLKQNTSEQFETVAVKIFPYEEYASWKTEKDIFSDINLKHENILQFLTAEERKTELGKQYWLITAFHAKGNLQEYLTRHVISWEDLRKLGSSLARGIAHLHSDHTPCGRPKMPIVHRDLKSSNILVKNDLTCCLCDFGLSLRLDPTLSVDDLANSGQVGTARYMAPEVLESRMNLENVESFKQTDVYSMALVLWEMTSRCNAVGEVKDYEPPFGSKVREHPCVESMKDNVLRDRGRPEIPSFWLNHQGIQMVCETLTECWDHDPEARLTAQCVAERFSELEHLDRLSGRSCSEEKIPEDGSLNTTK
notes: TβRII, TGF-β type II receptor; The methods name only the EYFP version; the results use an ECFP-tagged version; also called TβRII-EYFP; TGF-β type-II receptor; source: CHO cells, transiently co-transfected, in living cells
B2: ALK5, ECFP- or EYFP-tagged (receptor, UniProt P36897 34-503, looked up)
chain: LQCFCHLCTKDNFTCVTDGLCFVSVTETTDKVIHNSMCIAEIDLIPRDRPFVCAPSSKTGSVTTTYCCNQDHCNKIELPTTVKSSPGLGPVELAAVIAGPVCFVCISLMLMVYICHNRTVIHHRVPNEEDPSLDRPFISEGTTLKDLIYDMTTSGSGSGLPLLVQRTIARTIVLQESIGKGRFGEVWRGKWRGEEVAVKIFSSREERSWFREAEIYQTVMLRHENILGFIAADNKDNGTWTQLWLVSDYHEHGSLFDYLNRYTVTVEGMIKLALSTASGLAHLHMEIVGTQGKPAIAHRDLKSKNILVKKNGTCCIADLGLAVRHDSATDTIDIAPNHRVGTKRYMAPEVLDDSINMKHFESFKRADIYAMGLVFWEIARRCSIGGIHEDYQLPYYDLVPSDPSVEEMRKVVCEQKLRPNIPNRWQSCEALRVMAKIMRECWYANGAARLTALRIKKTLSQLSQQEGIKM
notes: ALK5, TGF-β type I receptor; The methods name only the EYFP version; the results use an ECFP-tagged version; also called ALK5-EYFP; source: CHO cells, transiently co-transfected, in living cells
B3: endoglin wild-type, EYFP- or ECFP-tagged (receptor, human, UniProt P17813 26-658, looked up)
chain: ETVHCDLQPVGPERGEVTYTTSQVSKGCVAQAPNAILEVHVLFLEFPTGPSQLELTLQASKQNGTWPREVLLVLSVNSSVFLHLQALGIPLHLAYNSSLVTFQEPPGVNTTELPSFPKTQILEWAAERGPITSAAELNDPQSILLRLGQAQGSLSFCMLEASQDMGRTLEWRPRTPALVRGCHLEGVAGHKEAHILRVLPGHSAGPRTVTVKVELSCAPGDLDAVLILQGPPYVSWLIDANHNMQIWTTGEYSFKIFPEKNIRGFKLPDTPQGLLGEARMLNASIVASFVELPLASIVSLHASSCGGRLQTSPAPIQTTPPKDTCSPELLMSLIQTKCADDAMTLVLKKELVAHLKCTITGLTFWDPSCEAEDRGDKFVLRSAYSSCGMQVSASMISNEAVVNILSSSSPQRKKVHCLNMDSLSFQLGLYLSPHFLQASNTIEPGQQSFVQVRVSPSVSEFLLQLDSCHLDLGPEGGTVELIQGRAAKGNCVSLLSPSPEGDPRFSFLLHFYTVPIPKTGTLSCTVALRPKTGSQDQEVHRTVFMRLNIISPDLSGCTSKGLVLPAVLGITFGAFLIGALLTAALWYIYSHTRSPSKREPVVAVAAPASSESSSTNHSIGSTQSTPCSTSSMA
notes: endoglin (CD105), human, wild type; EYFP-tagged with the ECFP-tagged receptors and with soluble ECFP; ECFP-tagged with the EYFP-tagged mutants; both versions together for the homodimer; also called endoglin^wt-EYFP; endoglin^wt-ECFP; source: CHO cells, transiently co-transfected (50 ng of each construct per 100 000 cells), in living cells; not shown: EYFP (acceptor) or ECFP (donor), C-terminal, …
B4: endoglin G52V, EYFP-tagged (with an ECFP-tagged copy for the homodimer) (receptor, human, UniProt P17813 26-658, looked up)
chain: B3 chain with G27V
notes: endoglin (CD105), human, HHT1 missense mutant G52V; also called mutant G52V; source: CHO cells, transiently co-transfected (50 ng of each construct per 100 000 cells), in living cells; not shown: EYFP (acceptor) or ECFP (donor, homodimer only), C-terminal, kept
B5: endoglin S480C, EYFP-tagged (receptor, human, UniProt P17813 26-658, looked up)
chain: B3 chain with S455C
notes: endoglin (CD105), human, missense mutant S480C (found in a Scottish HHT family); site-directed mutagenesis on pCMV5-endoglin wild type, moved into pEYFP-N1; also called mutant S480C; source: CHO cells, transiently co-transfected (50 ng of each construct per 100 000 cells), in living cells; not shown: EYFP, C-terminal, kept

Residue numbers refer to the chain shown, from its start. Names and notes keep the numbering of the source. A value given as a limit tells only on which side of the number the result lay.

Experiment in all cases: FRET or BRET; microscopic FRET in living CHO cells, ECFP donor and EYFP acceptor, 50 ng of each construct per 100 000 cells, 24 h after transfection, HEPES buffered ringer solution; FRET index (FI) = FRET efficiency x area with FRET; FI<51 no interaction, 51-99 weak or false positive, >=100 interaction; at least 30 cells per sample
For orientation: Bioluminescence resonance energy transfer reports proximity on the nanometre scale.

The target in series [1] is B3. Particulars: partners not purified.
For series [2], the target named is B5. The settings on record: partners not purified.
Series [3] deals with the molecule itself.

Turning to B1, in series [1], the “% of cells clearly FRET-positive (FRET index >=100)” value was 62%; the “% of cells in FRET index group 2 (FI 51-99, weak or false positive)” value worked out at 18%; the “mean FRET index of the positive cells” value stood at 293 FRET index. In addition, in series [2], the “% of cells clearly FRET-positive (FRET index >=100)” value stood at 3%; the “% of cells in FRET index group 2 (FI 51-99, weak or false positive)” value worked out at 10%; the “mean FRET index of the positive cells” value amounted to 147 FRET index.

On to B2, for which, in series [1], the “% of cells clearly FRET-positive (FRET index >=100)” value is 36%; the “% of cells in FRET index group 2 (FI 51-99, weak or false positive)” value was determined as 16%; the “mean FRET index of the positive cells” value came out at 243 FRET index. In series [2], the “% of cells clearly FRET-positive (FRET index >=100)” value is 13%; the “% of cells in FRET index group 2 (FI 51-99, weak or false positive)” value was 30%; the “mean FRET index of the positive cells” value is 129 FRET index.

Regarding B3, in series [3], the “% of cells clearly FRET-positive (FRET index >=100)” value was determined as 100% and the “mean FRET index of the positive cells” value turned out to be 373 FRET index.

For the molecule B4, in series [1], the “% of cells clearly FRET-positive (FRET index >=100)” value came to 51%; the “% of cells in FRET index group 2 (FI 51-99, weak or false positive)” value worked out at 27%; the “mean FRET index of the positive cells” value came out at 222 FRET index. In series [3], the “% of cells clearly FRET-positive (FRET index >=100)” value is at least 75%; the “% of cells in FRET index group 2 (FI 51-99, weak or false positive)” value was 15%; the “mean FRET index of the positive cells” value worked out at 204 FRET index.

For the molecule B5, in series [1], the “% of cells clearly FRET-positive (FRET index >=100)” value was found to be 65%; the “% of cells in FRET index group 2 (FI 51-99, weak or false positive)” value is 19%; the “mean FRET index of the positive cells” value came out at 239 FRET index.
